Where a chain is given by its changes, count along the chain named.

The target of data set [1] is Listeria monocytogenes Cas9 (LmoCas9) (Listeria monocytogenes). Briefly: cell-based or functional assay.
The subject of data set [2] is AcrIIA1 (phage A006) (Listeria phage A006). The data set can be described thus: MST. As to conditions: 34 nM stated in Example 5 (p151).
Data set [3] concerns AcrIIA1 NTD (Listeria phage A006). Briefly: MST.
The target of another data set is T1, Aca2 ZF40 (Pectobacterium phage ZF40, UniProt H9C180 H9C180:1-116).
T1 sequence: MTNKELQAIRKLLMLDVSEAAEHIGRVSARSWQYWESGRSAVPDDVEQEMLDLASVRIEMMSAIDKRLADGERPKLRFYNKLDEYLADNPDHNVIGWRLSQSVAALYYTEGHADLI
The data set can be described thus: cell_activity; lacZ reporter in E. coli; text listing of SEQ 6 differs from the Table 8 sequence for this accession. Conditions: chain copies: 2. The text has this: By aligning the intergenic regions found immediately upstream of anti-CRISPR genes associated with aca2, we detected a conserved inverted repeat sequence that could act as a binding site for Aca2 proteins (FIG. 11B). […] To investigate the functions of Aca2 and Aca3, the acrlaca regions from Pectobacterium phage ZF40 and from N. meningitidis strain 2842STDY5881035 were investigated as representatives of the Aca2 and Aca3 families, respectively. The putative promoter regions of the anti-CRISPR genes in these two operons (FIGS. 11B and 11D) were cloned upstream of a promoterless lacZ reporter gene carried on a plasmid. When assayed in E. coli, both regions mediated robust transcription of the reporter as detected by measuring β-galactosidase activity in cell extracts (FIG. 7).
β-galactosidase reporter assays. β-galactosidase reporter plasmids were transformed into DH5a and PA14. Overnight cultures of transformed cells were subcultured 1:100 and grown for ˜3 hours with shaking (OD₆₀₀=0.4-0.7). β-galactosidase activity was then quantified using a method derived from Zhang and Bremer, 1995. […] The reaction was stopped with the addition of 700 μL of 1 M Na₂CO₃, A420 and A550 were measured, and Miller Units were calculated.

For data set [4], the target named is T2, Aca1 (Pseudomonas aeruginosa phage JBD30).
T2 chain: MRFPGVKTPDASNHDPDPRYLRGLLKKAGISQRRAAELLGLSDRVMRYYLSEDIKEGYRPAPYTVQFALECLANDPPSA
Briefly: EMSA; two shifted bands; 10-250 nM Aca1. Conditions: tags: p15TV-L expression, Ni-NTA purified; chain copies: 2 (inferred; HTH proteins stated generally dimeric). Here is the method: (§1) FIG. 3E: Electrophoretic mobility shift assays (EMSAs) were performed utilizing a fragment of dsDNA with the sequence shown, which encompasses the acr promoter region. The IR1 and IR2 mutants contained the triple and quadruple base substitutions indicated under the DNA sequence. Representative non-denaturing polyacrylamide gels stained with SYBR gold are shown. Purified Aca1 was added to the DNA at concentrations of 10 nM, 50 nM, 100 nM and 250 nM. […] FIG. 3F: The anti-CRISPR promoter region from phage JBD30 either wild-type (WT), or bearing IR1 and/or IR2 mutations was cloned upstream of a promoterless lacZ gene. β-galactosidase activity was measured in PA14 (−Aca1) or in a JBD30 lysogen (+Aca1). The mean β-galactosidase activity relative to the wild-type promoter is shown, with error bars representing standard error of the mean (n≥3). FIG. 3G: Ten-fold dilutions of lysates of anti-CRISPR phage JBD30 carrying the indicated inverted repeat mutations were applied to lawns of CRISPR-Cas intact PA14 or CRISPR deleted PA14 (PA14ΔCRISPR). Representative images from three biological replicates are shown.
Aca1 acts on the acr promoter. Aca1 proteins are bioinformatically predicted to contain a helix-turn-helix (HTH) DNA-binding motif (FIG. 8A). HTH-containing proteins are generally dimeric and bind to inverted repeat sequences. […]

Data set [5] addresses T2, Aca1. The data set can be described thus: EMSA; no shift up to 250 nM. Conditions: tags: p15TV-L expression, Ni-NTA purified; chain copies: 2 (inferred; HTH proteins stated generally dimeric). How it is done: as §1, with “Representative” for “FIG. 3E: Electrophoretic mobility shift assays (EMSAs) were performed utilizing a fragment of dsDNA with the sequence shown, which encompasses the acr promoter region. The IR1 and IR2 mutants contained the triple and quadruple base substitutions indicated under the DNA sequence. Representative”
Aca1 acts on the acr promoter. Aca1 proteins are bioinformatically predicted to contain a helix-turn-helix (HTH) DNA-binding motif (FIG. 8A). HTH-containing proteins are generally dimeric and bind to inverted repeat sequences. We identified two such sites with very similar sequences which we refer to as IR1 and IR2, flanking the −35 region of the acrIF1 promoter (FIG. 3B). […]

Another data set concerns the target T3, Aca1 R44A (Pseudomonas aeruginosa phage JBD30, R44A).
T3 chain: T2 chain with R44A
Briefly: EMSA; binding completely abolished; 10-500 nM. As to conditions: tags: p15TV-L expression, Ni-NTA purified; chain copies: 2 (inferred). Here is the method:
FIG. 4A: Representative electrophoretic mobility shift assays with indicated Aca1 mutants using the 110 bp upstream region from phage JBD30 as a substrate. Purified protein was added at concentrations of 10 nM, 50 nM, 100 nM, 250 nM and 500 nM. […] Non-denaturing acrylamide gels stained with SYBR gold are shown. FIG. 4B: The anti-CRISPR promoter region from phage JBD30 was cloned upstream of a promoterless lacZ gene. β-galactosidase activity was measured in a wild-type JBD30 lysogen (WT Aca1), JBD30 Aca1 mutant lysogens as indicated, and wild-type PA14 with no prophage (−). The mean from three independent experiments relative to the wild-type Aca1 JBD30 lysogen is shown, with error bars representing the standard error of the mean. FIG. 4C: Lysates of phage JBD30 (WT or Aca1R44A mutant) were spotted in 10-fold serial dilutions on bacterial lawns of wild-type P. aeruginosa PA14, a CRISPR deletion version of PA14 (PA14ΔCRISPR), or on the deletion strain bearing a plasmid that expresses Aca1. These phages are targeted by the CRISPR-Cas system in the absence of anti-CRISPR activity. Representative images from three biological replicates are shown. […] FIG. 4E: The transcript levels of the acrIF1 and aca1 genes in phages bearing anti-CRISPR promoter operator mutants and aca mutants were determined by RT-qPCR. […]

Data set [6] addresses T2, Aca1. Briefly: EMSA; 10 mM HEPES pH 7.5, 1 mM MgCl2, 20 mM KCl, 1 mM TCEP, 6% glycerol, on ice; second shifted band at higher concentrations. Conditions: tags: p15TV-L expression, Ni-NTA purified; chain copies: 2 (inferred; HTH proteins stated generally dimeric). The text has this: Aca1 acts on the acr promoter. Aca1 proteins are bioinformatically predicted to contain a helix-turn-helix (HTH) DNA-binding motif (FIG. 8A). HTH-containing proteins are generally dimeric and bind to inverted repeat sequences. We identified two such sites with very similar sequences which we refer to as IR1 and IR2, flanking the −35 region of the acrIF1 promoter (FIG. 3B). To determine whether Aca1 could bind to the anti-CRISPR promoter region, purified Aca1 was mixed with a 110 bp dsDNA fragment containing the acr promoter and an electrophoretic mobility shift assay (EMSA) was performed. […] At higher Aca1 concentrations, a second shifted band was observed, consistent with the presence of two Aca1 binding sites within this fragment.
Electrophoretic mobility shift assay. Varying concentrations of purified Aca1 or Aca1 mutants were mixed with 20 ng of target DNA (gel purified PCR product or annealed oligo) in binding buffer (10 mM HEPES pH 7.5, 1 mM MgCl₂, 20 mM KCl, 1 mM TCEP, 6% v/v glycerol) and incubated on ice for 20 minutes. The DNA-protein complexes were separated by gel electrophoresis at 100 V on a 6% native 0.5× TBE polyacrylamide gel. Gels were stained at room temperature with Sybr gold (Invitrogen) and visualized according to the supplier's instructions. Bands were quantified using Image Lab 6.0 software (BioRad). […]

For another data set, the target named is T4, Aca1 (in cell) (Pseudomonas aeruginosa phage JBD30).
T4 chain: T2 chain
The data set can be described thus: cell_activity; lacZ reporter in P. aeruginosa JBD30 lysogen.

Regarding “AcrIIA1 (full-length, from Listeria phage ΦA006)”, in data set [1], the Nanoluciferase (NLuc) expression from the anti-CRISPR locus promoter, fold change in RLU, ΦA006acr::nluc lysogen came out at 5 fold. As for “phage A006 anti-CRISPR promoter palindrome”, the Kd in data set [2] was determined as 0.026 µM; in data set [3], 0.028 µM.

B1: ZF40 acrIF8 promoter region (dsDNA)
DNA 1: AGCCTCACCTCCGGCGTTGCCGTGGCGCTGTGTGATTTACAGGAAATAAAAAGGCCACGAATGCGGCCTTAGCGATTAAAAAATATGAAATGCCTTGCTTGTTCGCGATTGCGAACATATAATTTATTCATCGGTTCGAG
DNA 2: CTCGAACCGATGAATAAATTATATGTTCGCAATCGCGAACAAGCAAGGCATTTCATATTTTTTAATCGCTAAGGCCGCATTCGTGGCCTTTTTATTTCCTGTAAATCACACAGCGCCACGGCAACGCCGGAGGTGAGGCT
In the data set with Aca2 ZF40, B1 displayed an activity of 100 fold repression.

B2: acrIF1 promoter IR1-IR2 oligo WT (dsDNA)
DNA 1: ACAAGCGGCACACTGTGCCTATTGCGAATTAGGCACAATGTGCCTAATCTAACG
DNA 2: CGTTAGATTAGGCACATTGTGCCTAATTCGCAATAGGCACAGTGTGCCGCTTGT
Regarding B2, in the data set with Aca1 [4], the binding result is “binds”.

B3: IR1+IR2 mutant oligo (dsDNA)
DNA 1: ACAAGCGTCGTACTGTGCCTATTGCGAGCTAGTCCCAATGTGCCTAATCTAACG
DNA 2: CGTTAGATTAGGCACATTGGGACTAGCTCGCAATAGGCACAGTACGACGCTTGT
For the molecule B3, the binding result with Aca1 [5] is “no binding”.

B4: JBD30 acrIF1 promoter 110 bp upstream region (dsDNA)
DNA 1: TGGCCACTTTCGGACAAGCGGCACACTGTGCCTATTGCGAATTAGGCACAATGTGCCTAATCTAACGTCATGCCAGCCACAACGGCGAGGCGCCAACAAGGATTCAAACC
DNA 2: GGTTTGAATCCTTGTTGGCGCCTCGCCGTTGTGGCTGGCATGACGTTAGATTAGGCACATTGTGCCTAATTCGCAATAGGCACAGTGTGCCGCTTGTCCGAAAGTGGCCA
On to B4, for which, in the data set with Aca1 R44A, the binding result was “no binding”. For the same molecule, the Kd with Aca1 [6] was around 0.05 µM. In the data set with Aca1 (in cell), this molecule yielded an activity of 5 fold repression.

Values taken from patent US20220243213A1, “ANTI-CRISPR INHIBITORS” (THE REGENTS OF THE UNIVERSITY OF CALIFORNIA, published 2022).
